# B1: Smu-2 suppressor of mec-8 and unc-52 protein (Caenorhabditis elegans), Q9N4U5 (parent)
# chain: MADNPTNLRNADFRKLLTSARSDRPAVSAFAKPADPKTGDDKPASFKHKHLKPAKFKKPQAAAHGKAKKEKTEADEDEAALKNILKNYRDRAAERRKQGDEKEDPSKLTAAYRAVPGDARSAQDQADLRKQAILESKYLGGDLEHTHLVKGLDYSLLNKVRSEIDKSDDDDDDDIDTAFDEKVTSSSSSSKPSEASLLAQELAQSHSENRMVRSLHRVLFKNEVPLHNQLFAKGRMAYVVELEDEETDIPTTLLRSLHDLPRAESAQSIQANNLIILKLSHVLSHLRAEPKKKKKEEFRVQLGSRDAPGAAAAAPGAKGDSIYDDLDDYVPSRKSRDSRDAGRRGSRRDRSRDRSRDRDRDRDRDNRDRYFEKSANSRREEEQNRREQQRERERAEQERRREREKEREQEKAKEREKKRKELEESSGYDECYPGGLVEMGGAWDSDEEADYSKMDAGPKKNQAVNRWDFDTEEEYASYMEGREALPKAAYQYGVKNGEGGRKNKKQSAVSDAKRLDRELNEINKIMDKRKAGGDGAGGGGDYKKPKY
# Variants of: B1
# Settings: with smu1_caeel smu-1, G5EEG7
# Chain of smu1_caeel smu-1, G5EEG7 (G5EEG7 whole entry): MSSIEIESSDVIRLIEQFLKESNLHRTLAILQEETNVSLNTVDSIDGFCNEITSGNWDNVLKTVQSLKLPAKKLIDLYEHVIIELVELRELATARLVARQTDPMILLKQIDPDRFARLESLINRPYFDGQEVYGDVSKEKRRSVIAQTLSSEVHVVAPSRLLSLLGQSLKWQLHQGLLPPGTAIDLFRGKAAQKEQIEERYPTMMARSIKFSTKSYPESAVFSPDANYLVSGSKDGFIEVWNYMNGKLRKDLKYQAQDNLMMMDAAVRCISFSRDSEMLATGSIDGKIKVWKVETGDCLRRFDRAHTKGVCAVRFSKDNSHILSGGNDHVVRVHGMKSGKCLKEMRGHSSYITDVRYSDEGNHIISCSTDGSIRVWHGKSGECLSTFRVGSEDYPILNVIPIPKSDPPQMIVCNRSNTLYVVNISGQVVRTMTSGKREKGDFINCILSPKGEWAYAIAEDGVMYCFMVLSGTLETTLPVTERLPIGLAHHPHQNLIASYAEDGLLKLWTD
row,Variant,effect of a mutation on the interaction
1,V212R,disrupting interaction strength
2,F220R,disrupting interaction strength
